Three substances from EP1143253A1 can be followed below.

In assay [1] the target is human transferrin receptor, membrane form (human) (UniProt P02786). Kind of assay: FACS, OKT9 on SK-MEL-28 cells after Pronase treatment, against untreated stained cells. On the technique in general: A flow cytometer gives signals particle by particle.
The target is the same in assay [2]. Kind of assay: FACS, OKT9 on SK-MEL-28 cells after PI-PLC treatment, against untreated stained cells.
Assay [3] has as its target human p97 (melanotransferrin), GPI-anchored membrane form (human) (UniProt P08582). Nature of the assay: FACS, L235 on p97aWTBc7 cells after PI-PLC treatment, against untreated stained cells.
For assay [4] the target is unchanged. Nature of the assay: FACS, L235 on SK-MEL-28 cells after PI-PLC treatment, against untreated stained cells.
For assay [5] the target is unchanged. Nature of the assay: FACS on SK-MEL-28 cells; L235 hybridoma supernatant, goat anti-mouse IgG-FITC.
The target is the same in assay [6]. Nature of the assay: FACS on SK-MEL-28 cells pre-incubated with PI-PLC (60 min, 37 C), which removes p97; L235 supernatant, goat anti-mouse IgG-FITC.
The target is the same in assay [7]. Kind of assay: FACS on Sf9 cells infected with p97 recombinant baculovirus p97 B-2-1; L235 supernatant, goat anti-mouse IgG-FITC.
For assay [8] the target is unchanged. Nature of the assay: FACS, L235 on p97aWTBc3 cells after PI-PLC treatment, against untreated stained cells.
Assay [9] shares this target. Nature of the assay: FACS on Sf9 cells infected with p97 recombinant baculovirus p97 B-1-1; L235 supernatant, goat anti-mouse IgG-FITC.
Assay [10] shares this target. Nature of the assay: FACS on Sf9 cells infected with p97 B-1-1, pre-incubated with PI-PLC; L235 supernatant, goat anti-mouse IgG-FITC.
Assay [11] has the same target. Kind of assay: FACS on Sf9 cells infected with p97 B-2-1, pre-incubated with PI-PLC; L235 supernatant, goat anti-mouse IgG-FITC.
For assay [12] the target is unchanged. Kind of assay: FACS, L235 on SK-MEL-28 cells after Pronase treatment, against untreated stained cells.
Assay [13] concerns the target Thy-1 on EL-4 mouse lymphoma cells (mouse) (UniProt P01831). Kind of assay: FACS, T24/37.1 on EL-4 cells after PI-PLC treatment, against untreated stained cells.
Assay [14] has the same target. Kind of assay: FACS, T24/37.1 on EL-4 cells after Pronase treatment, against untreated stained cells.

Sequence of UniProt P08582 (P08582 20-709): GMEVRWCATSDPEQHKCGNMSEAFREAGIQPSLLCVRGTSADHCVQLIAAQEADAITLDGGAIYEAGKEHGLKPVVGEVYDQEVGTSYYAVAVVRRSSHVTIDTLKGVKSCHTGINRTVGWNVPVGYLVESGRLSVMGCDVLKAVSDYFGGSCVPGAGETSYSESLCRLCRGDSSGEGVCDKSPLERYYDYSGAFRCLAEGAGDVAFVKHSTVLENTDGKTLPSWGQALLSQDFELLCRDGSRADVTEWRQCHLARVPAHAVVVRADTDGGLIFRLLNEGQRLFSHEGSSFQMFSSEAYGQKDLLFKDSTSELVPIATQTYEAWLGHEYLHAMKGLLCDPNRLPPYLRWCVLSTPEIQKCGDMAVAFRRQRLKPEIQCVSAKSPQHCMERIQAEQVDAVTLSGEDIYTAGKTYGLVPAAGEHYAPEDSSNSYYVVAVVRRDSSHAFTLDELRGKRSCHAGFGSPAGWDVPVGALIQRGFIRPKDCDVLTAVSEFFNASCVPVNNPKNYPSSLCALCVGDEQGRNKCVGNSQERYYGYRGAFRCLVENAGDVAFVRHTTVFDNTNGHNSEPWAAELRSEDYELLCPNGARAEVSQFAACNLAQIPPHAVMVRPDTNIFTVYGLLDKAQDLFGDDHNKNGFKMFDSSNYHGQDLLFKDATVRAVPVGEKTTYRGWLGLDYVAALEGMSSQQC
Sequence of UniProt P01831 (P01831 20-131): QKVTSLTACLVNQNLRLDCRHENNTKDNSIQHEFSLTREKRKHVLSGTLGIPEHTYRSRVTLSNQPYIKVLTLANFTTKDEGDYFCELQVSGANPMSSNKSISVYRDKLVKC
Sequence of UniProt P02786 (P02786 whole entry): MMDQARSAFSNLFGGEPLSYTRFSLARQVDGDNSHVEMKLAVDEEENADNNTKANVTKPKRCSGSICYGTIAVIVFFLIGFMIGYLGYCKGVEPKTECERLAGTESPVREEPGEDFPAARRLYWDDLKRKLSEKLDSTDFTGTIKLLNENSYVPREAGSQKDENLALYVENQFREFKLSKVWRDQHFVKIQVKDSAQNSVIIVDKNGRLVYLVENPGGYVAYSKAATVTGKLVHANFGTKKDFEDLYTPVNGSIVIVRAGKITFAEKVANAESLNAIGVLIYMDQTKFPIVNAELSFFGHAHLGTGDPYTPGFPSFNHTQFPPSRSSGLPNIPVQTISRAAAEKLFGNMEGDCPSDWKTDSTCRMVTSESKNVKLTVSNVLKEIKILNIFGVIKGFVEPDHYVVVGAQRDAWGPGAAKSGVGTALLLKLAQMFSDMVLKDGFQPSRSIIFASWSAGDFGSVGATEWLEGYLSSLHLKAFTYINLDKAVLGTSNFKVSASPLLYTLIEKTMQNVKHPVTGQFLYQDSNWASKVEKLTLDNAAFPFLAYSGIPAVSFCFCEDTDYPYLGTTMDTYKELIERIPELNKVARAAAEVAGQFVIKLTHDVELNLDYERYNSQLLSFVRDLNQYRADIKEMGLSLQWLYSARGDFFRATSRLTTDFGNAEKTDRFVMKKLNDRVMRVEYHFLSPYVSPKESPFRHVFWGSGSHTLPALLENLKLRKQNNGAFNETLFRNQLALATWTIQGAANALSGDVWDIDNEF

With “OKT9 anti-human transferrin receptor monoclonal antibody”, the Fluorescene Intensity (% of Control) in [1] is 15.9 % of Control; in [2] it was 120 % of Control.

As for L235 anti-human p97 monoclonal antibody, the Fluorescene Intensity (% of Control) in assay [3] was 7.5 % of Control; in [4] it was 10.8 % of Control; in [8], 6.8 % of Control; in assay [12], 82.6 % of Control. The FLUORESCENCE - converted linear value (converted linear value) in [5] came out at 128; in assay [6], 4.52; in [7], 97.4; in assay [9], 112; in [10], 5.74; in [11], 6.85.

Regarding T24/37.1 MAb (anti-Thy-1) (antibody), the Fluorescene Intensity (% of Control) in [13] was 32.5 % of Control; in assay [14], 136 % of Control.
